According to US7063946B2, “Methods, reagents, kits and apparatus for protein function analysis” (Meso Scale Technologies, LLC., priority 2001, dated 2006):
Residue numbers refer to the chain shown, from its start. In names and notes the source's numbering stands.

B1: RGS4: Regulator of G-protein signaling 4, in vitro translated from plasmid pcDNA3-RGS4 (protein, UniProt P49798 1-205, looked up)
Regulator of G-protein …: MCKGLAGLPASCLRSAKDMKHRLGFLLQKSDSCEHNSSHNKKDKVVICQRVSQEEVKKWAESLENLISHECGLAAFKAFLKSEYSEENIDFWISCEEYKKIKSPSKLSPKAKKIYNEFISVQATKEVNLDSCTREETSRNMLEPTITCFDEAQKKIFNLMEKDSYRRFLKSRFYLDLVNPSSCGAEKQKGAKSSADCASLVPQCA
B2: RGS4-C2V: RGS4C2V mutant, in vitro translated from pcDNA3-RGS4-C2V (protein, UniProt P49798 1-205, looked up, variant C2V)
Regulator of G-protein …: B1 Regulator of G-protein … with C2V
B3: 3919253: IMAGE clone protein: BMX non-receptor tyrosine kinase (protein)
chain: MDTKSILEELLLKRSQQKKKMSPNNYKERLFVLTKTNLSYYEYDKMKRGSRKGSIEIKKIRCVEKVNLEEQTPVERQYPFQIVYKDGLLYVYASNEESRSQWLKALQKEIRGNPHLLVKYHSGFFVDGKFLCCQQSCKAAPGCTLWEAYANLHTAVNEEKHRVPTFPDRVLKIPRAVPVLKMDAPSSSTTLAQYDNESKKNYGSQPPSSSTSLAQYDSNSKKIYGSQPNFNMQYIPREDFPDWWQVRKLKSSSSSEDVASSNQKERNVNHTTSKISWEFPESSSSEEEENLDDYDWFAGNISRSQSEQLLRQKGKEGAFMVRNSSQVGMYTVSLFSKAVNDKKGTVKHYHVHTNAENKLYLAENYCFDSIPKLIHYHQHNSAGMITRLRHPVSTKANKVPDSVSLGNGIWELKREEITLLKELGSGQFGVVQLGKWKGQYDVAVKMIKEGSMSEDEFFQEAQTMMKLSHPKLVKFYGVCSKEYPIYIVTEYISNGCLLNYLRSHGKGLEPSQLLEMCYDVCEGMAFLESHQFIHRDLAARNCLVDRDLCVKVSDFGMTRYVLDDQYVSSVGTKFPVKWSAPEVFHYFKYSSKSDVWAFGILMWEVFSLGKQPYDLYDNSQVVLKVSQGHRLYRPHLASDTIYQIMYSCWHELPEKRPTFQQLLSSIEPLREKDKH

Legend:
[1] = test system: ubiquitylation in reticulocyte lysate; assay: Ubiquitylation assay using Sulfo-TAG labeled FK2 antibody, streptavidin magnetic beads, M-8 Analyzer; assay type: biochemical, rabbit
Protocol: Transcription-translation reaction mixtures containing pcDNA3-RGS4 or pcDNA3-RGS4-C2V plazmids(Davydov and Varshavsky, 2000, J. Biol. Chem., 275:22931–22941) were prepared and used as described in the Example 2. The reaction products were mixed with 3 μg Sulfo-TAG labeled FK2 antibody in a 96-well plate in a binding buffer. Sulfo-TAG labeled FK2 antibody had 5.6 Sulfo-TAG labels per antibody molecule. […] Then 30 μl of BB1 supplemented with 20 mM AMP-PNP, 20 mM N-ethylmaleimide and containing 20 μg dynal beads streptavidin (Dynal) were added to each well, and the plate was left on the shaker at room temperature for another hour to allow for binding of biotinylated proteins to dynal beads. Thereafter the volume in each well was adjusted to 200 μl with BB1, and ECL signals were measured in M-8 Analyzer (IGEN International, Inc., Gaithersburg Md.).

[2] = test system: ubiquitylation in reticulocyte lysate; assay: ECL ubiquitylation assay using Sulfo-TAG-labeled FK2 antibody and streptavidin-coated IPR plate; assay type: biochemical, rabbit
Protocol: The protein was prepared as described Example 2 and mixed with 60 μg/ml Sulfo-TAG-labeled FK2 antibody (Affiniti) having 5.6 labels per antibody, in a streptavidin-coated NPT IPR plate.

[3] = test system: N-end rule pathway ubiquitylation in reticulocyte lysate; assay: ECL ubiquitylation assay using Sulfo-TAG-labeled streptavidin and IPR plate coated with FK2 antibody; assay type: biochemical, rabbit; settings: for IPR readings, Experiment 1 / IPR readings, Experiment 2: no dipeptide inhibitor
Protocol: (§1) Binding Buffer 2 (BB2) refers to 25 mM Tris-HCl buffer pH 7.4 containing 100 mM NaCl, 0.05 mM Na3VO4, 0.004% TritonX-100, 2 mM DTT and protease inhibitors (protease inhibitor cocktail, EDTA free, Roche Applied Science). Proteins were produced by coupled transcription/translation using TnT reaction mixes (Promega Corp, WI). The TNT Quick coupled transcription-translation system (Promega) contains rabbit reticulocyte lysate pre-mixed with most of the reaction components necessary to carry out transcription and translation in vitro (TNT mix), including all the amino acids except methionine. Unless otherwise noted, biotin-labeled in vitro translated proteins were produced in reaction mixtures that contained 8–30 μg/ml of a selected plasmid encoding protein of interest, 5 μl of TNT T7 Quick reticulocyte lysate mix (Promega Corp, WI) or TnT SP6 Quick Coupled Transcription/Translation System (Promega Corp, WI), 20 μM methionine, 50 μM MG-132 (Calbiochem, proteasome inhibitor to inhibit degradation of ubiquitylated proteins by proteasome) and 20 μg/ml biotinylated Lys-tRNA (transcend tRNA, Promega). The reactions were allowed to proceed for 20–90 min at 30° C. The reactions were stopped by the addition of BB1 supplemented with 20 mM AMP-PNP (Sigma, a non-hydrolyzable ATP analog), 20 mM N-ethylmaleimide (Sigma, an irreversible inhibitor of deubiquitylating enzymes) or, alternatively, by the addition of BB2. BB1 was used in screens involving the ubiquitination pathway. BB2 was used for other assay formats. The produced proteins were used in the assays of interest with or without further purification.
Transcription-translation reaction mixtures were prepared as described in the Example 1 except that no labeled ubiquitin was added. Some reactions also contained 1 mM dipeptide inhibitor of the N-end rule pathway (either Arg-β-Ala, or Trp-Ala) together with 50 μM bestatin as indicated (Table 2). The reaction was allowed to proceed for 20 min at 30° C. Then 1 μl of the reaction was mixed with 50 μl of BB1 supplemented with 20 mM AMP-PNP, 20 mM N-ethylmaleimide, and 2 μg/ml Sulfo-TAG-labeled streptavidin in a well of an IPR plate coated with an anti-ubiquitin antibody (FK2 antibody, Affiniti). […] In a typical assay the presence of RGS4-encoding plasmid produced a 30–100 fold higher ECL signal compared to the empty vector (FIG. 2, Table 2). This signal was reduced 3–4 fold in the presence of Arg-β-Ala (a type 1 inhibitor of the N-end rule pathway), but not in the presence of Trp-Ala (a type 2 inhibitor of the N-end rule pathway) in agreement with the previous report that RGS4 is a type 1 N-end rule substrate in reticulocyte lysates (Davydov and Varshavsky, 2000, J. Biol. Chem., 275:22931–22941). In the same assay RGS4 produced 3–5 fold higher ECL signal compared to RGS4C2V, when the same amounts of the corresponding plasmids were added to the reaction mixtures (Table 2).

[4] = test system: ubiquitylation in reticulocyte lysate; assay: Ubiquitylation assay using Sulfo-TAG labeled Ub, streptavidin magnetic beads, M-8 Analyzer; assay type: biochemical, rabbit
Protocol: Then 10 μl of the reaction product was mixed with 50 μl of BB1 supplemented with 20 mM AMP-PNP, 20 mM N-ethylmaleimide, and 20 μg streptavidin coated magnetic beads (Streptavidin Dyna-Beads, Dynal) in a 96-well plate. […] Thereafter the volume in each well was adjusted to 200 μl with binding buffer, and ECL signals were measured in M-8 Analyzer (IGEN International, Inc., Gaithersburg, Md.).

[5] = test system: ubiquitin-proteasome system (N-end rule pathway) in reticulocyte lysate; assay: ECL assay for ubiquitylation in reticulocyte lysate using Sulfo-TAG-labeled Ub, streptavidin-coated IPR plate; assay type: biochemical, rabbit; settings: for IPR readings, Experiment 1 / IPR readings, Experiment 2: Sulfo-TAG-labeled Ub, reticulocyte lysate +
Protocol: as §1
RGS4 was produced by transcription/translation of 30 μg/ml plasmid pcDNA3-RGS4 (Davydov and Varshavsky, 2000, J. Biol. Chem., 275:22931–22941) under the conditions described in Materials and Methods except for the addition of 1 μM Ub aldehyde (Calbiochem, to inhibit deubiquitylating enzymes) and 5 μM Sulfo-Tag-labeled Ub (having an average of 4.1 labels per Ub molecule). Then 3 μl of the reaction was mixed with 50 μl of BB1 in a 96-well streptavidin-coated non-plasma treated IPR (NPT IPR) plate.

pEY = assay: In vitro kinase library screen: activity towards pEY; assay type: biochemical; settings: 5 ul of expressed protein
Procedure, shortened: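 Kinases made by in vitro transcription/translation, immobilised on streptavidin/avidin plates and washed with Tris/Triton and high-salt buffers. Incubated overnight at room temperature with 5 nM pEY, 100 µM ATP, Mg2+/Mn2+ and vanadate at pH 7.4. Phospho-pEY captured with biotinylated PY20 and detected by Sulfo-TAG anti-phosphotyrosine ECL.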

[6] = target: T1, pY1068 peptide (SEQ ID NO: 7) (Homo sapiens, UniProt P00533); assay: 96-well screen for phosphopeptide binding proteins, 7-spot IPR plates; settings: two steps of normalization; top 9 clones
T1 construct: phosphotyrosine at Tyr1068 (chemical modification); purchased New England Peptide, Fitchburg Mass; host or cells: chemical synthesis
Protocol: A screen was conducted using 7-spot IPR plates. The 7 spot NPT IPR plates are described in more detail in copending Provisional Application No. 60/301,932 (entitled “Assay Plates, Reader Systems and Methods for Luminescence Test Measurements”, filed on Jun. 29, 2001, hereby incorporated by reference) and particularly in the description of Plate Type D in Example 6.1 (NPT IPR plate) and U.S. application Ser. Nos. 10/185,274 and 10/185,363, filed Jun. 28, 2002, each hereby incorporated by reference. These plates consist of a 96 wells with 7 zones (spots) for the immobilization of proteins or other reagents. Each spot was coated with BSA conjugated to either a single phosphopeptide or multiple phosphopeptides.
The plates were prepared essentially as described in example 12. The seven spots supported, respectively, the following BSA conjugates IkB, pY992, pY1068, pY1148, Myc, “A”, and “6-P”. “A” refers to a conjugate of BSA with multiple peptides: IkB, pY1148, Myc which were then coupled to BSA. “6-P” refers to a conjugate of BSA with the following multiple peptides: IkB, pY1148, pY992, pY1068, Smad3C.
For the assay, 4 ul from TnT reaction product described above were added to the coated plate containing 50 μl of binding buffer supplemented with 50 ng/well Ru-Streptavidin. The binding reaction was allowed to proceed at room temperature for 1 hour with constant shaking. […] The ECL signals were measured using an imaging plate reader (IPR). The raw data from the IPR reader was then normalized using two steps of normalization. The first round was based on the 50 lowest values for a given specific spot.

[7] = test system: autophosphorylation (phosphotyrosine); assay: In vitro kinase library screen: autophosphorylation; assay type: biochemical
Procedure, shortened: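 Biotinylated SYK and EphA7 from in vitro transcription/translation, immobilized on streptavidin/avidin plates; autophosphorylation overnight at room temperature with 5 mM MgCl2, 5 mM MnCl2, 100 μM ATP, pH 7.4. Phosphotyrosine detected by Sulfo-TAG anti-phosphotyrosine (45 min) and ECL read-out.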

| Molecule | M-8 readings [1] | IPR readings ([2]; reticulocyte lysate +) | fold higher ECL signal compared to the empty vector ([2]; typical assay) | IPR readings, Experiment 1 [3] | IPR readings, Experiment 2 [3] | fold higher ECL signal compared to RGS4C2V ([3]; same amounts of plasmids) | fold higher ECL signal compared to the empty vector ([3]; typical assay) | M-8 readings, Experiment 1 [4] | M-8 readings, Experiment 2 [4] | IPR readings, Experiment 1 [5] | IPR readings, Experiment 2 [5] | fold higher ECL signal compared to RGS4C2V ([5]; same amounts of plasmids) | fold higher ECL signal compared to the empty vector ([5]; typical experiment) | HTS signal (pEY) | normalized ECL signal, pY1068 spot [6] | ECL signal [7] |
| --- | --- | --- | --- | --- | --- | --- | --- | --- | --- | --- | --- | --- | --- | --- | --- | --- |
| B1 | 187328 | 85993 | 15–30 fold | 23441 | 23137 | 3–5 fold | 30–100 fold | 87339 | 71463 | 29294 | 27303 | 3–4 fold | 5–15 fold |  |  |  |
| B2 | 14689 |  |  | 5567 | 5362 |  |  | 30201 | 26712 | 7744 | 7614 |  |  |  |  |  |
| B3 |  |  |  |  |  |  |  |  |  |  |  |  |  | 523,662 | 3 | 443,933 |
